Laboratory results reported in the supplement of paper PMC9112550, “Optimization of the antimicrobial peptide Bac7 by deep mutational scanning” (BMC Biology, 2022).

tested on: Escherichia coli TOP10; test: shrunken log2 fold change of peptide-encoding DNA abundance (4.5 h post-induction vs induction); higher = less antimicrobial activity (less host growth inhibition); conditions: time post-induction: 4.5 h; library: site-saturation at positions 5, 18, 19, 20
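Note: peptides expressed intracellularly from a pBAD plasmid library in pooled LB shake-flask culture, induced with 0.3% L-arabinose, DNA abundance read by NGS, three biological replicates, DESeq2 with apeglm shrinkage.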

| Sequence | shrunken log2 fold change |
| --- | --- |
| RRIRGRPPRLPRPRPRPKCCPRP | 0.56 |
| RRIRGRPPRLPRPRPRPKCEPRP | 1.14 |
| RRIRGRPPRLPRPRPRPKCKPRP | 0.51 |
| RRIRGRPPRLPRPRPRPKCLPRP | -0.0243 |
| RRIRGRPPRLPRPRPRPKDAPRP | 0.432 |
| RRIRGRPPRLPRPRPRPKDGPRP | 0.798 |
| RRIRGRPPRLPRPRPRPKDLPRP | -0.0839 |
| RRIRGRPPRLPRPRPRPKEAPRP | 0.948 |
| RRIRGRPPRLPRPRPRPKETPRP | -0.0578 |
| RRIRGRPPRLPRPRPRPKFQPRP | 0.528 |
| RRIRGRPPRLPRPRPRPKFWPRP | 0.533 |
| RRIRGRPPRLPRPRPRPKGEPRP | 0.197 |
| RRIRGRPPRLPRPRPRPKGKPRP | 1.16 |
| RRIRGRPPRLPRPRPRPKIEPRP | 0.566 |
| RRIRGRPPRLPRPRPRPKIRPRP | 0.118 |
| RRIRGRPPRLPRPRPRPKPSPRP | 1.1 |
| RRIRGRPPRLPRPRPRPKQVPRP | 0.541 |
| RRIRGRPPRLPRPRPRPKRIPRP | 0.147 |
| RRIRGRPPRLPRPRPRPKWGPRP | 0.215 |
| RRIRGRPPRLPRPRPRPKWPPRP | 0.322 |
| RRIRGRPPRLPRPRPRPKYFPRP | -0.251 |
| RRIRGRPPRLPRPRPRPKYQPRP | 0.159 |
| RRIRGRPPRLPRPRPRPLCHPRP | 0.775 |
| RRIRGRPPRLPRPRPRPLEHPRP | 0.594 |
| RRIRGRPPRLPRPRPRPLESPRP | 1.12 |

| Sequence | shrunken log2 fold change |
| --- | --- |
| RRIRGRPPRLPRPRPRPLEYPRP | 0.123 |
| RRIRGRPPRLPRPRPRPLFMPRP | 0.223 |
| RRIRGRPPRLPRPRPRPLGTPRP | 0.736 |
| RRIRGRPPRLPRPRPRPLGVPRP | 0.835 |
| RRIRGRPPRLPRPRPRPLGYPRP | 0.885 |
| RRIRGRPPRLPRPRPRPLHMPRP | 0.379 |
| RRIRGRPPRLPRPRPRPLIAPRP | 1.27 |
| RRIRGRPPRLPRPRPRPLIGPRP | 0.561 |
| RRIRGRPPRLPRPRPRPLITPRP | 0.676 |
| RRIRGRPPRLPRPRPRPLKQPRP | -0.115 |
| RRIRGRPPRLPRPRPRPLLMPRP | 1.22 |
| RRIRGRPPRLPRPRPRPLLRPRP | 0.485 |
| RRIRGRPPRLPRPRPRPLMAPRP | 1.39 |
| RRIRGRPPRLPRPRPRPLMMPRP | 0.647 |
| RRIRGRPPRLPRPRPRPLNEPRP | 0.57 |
| RRIRGRPPRLPRPRPRPLPGPRP | 1.01 |
| RRIRGRPPRLPRPRPRPLPYPRP | -0.086 |
| RRIRGRPPRLPRPRPRPLQEPRP | 1.56 |
| RRIRGRPPRLPRPRPRPLRLPRP | 1.34 |
| RRIRGRPPRLPRPRPRPLRYPRP | 0.688 |
| RRIRGRPPRLPRPRPRPLSKPRP | 0.425 |
| RRIRGRPPRLPRPRPRPLSNPRP | 0.416 |
| RRIRGRPPRLPRPRPRPLTFPRP | 0.077 |
| RRIRGRPPRLPRPRPRPLVQPRP | 0.802 |
| RRIRGRPPRLPRPRPRPLVSPRP | 0.355 |

| Sequence | shrunken log2 fold change |
| --- | --- |
| RRIRGRPPRLPRPRPRPMAGPRP | 0.0763 |
| RRIRGRPPRLPRPRPRPMANPRP | 0.057 |
| RRIRGRPPRLPRPRPRPMCRPRP | 0.393 |
| RRIRGRPPRLPRPRPRPMDHPRP | -0.137 |
| RRIRGRPPRLPRPRPRPMDKPRP | 0.378 |
| RRIRGRPPRLPRPRPRPMEAPRP | 1.27 |
| RRIRGRPPRLPRPRPRPMESPRP | 0.295 |
| RRIRGRPPRLPRPRPRPMGEPRP | 0.902 |
| RRIRGRPPRLPRPRPRPMGHPRP | 0.202 |
| RRIRGRPPRLPRPRPRPMGVPRP | 0.00855 |
| RRIRGRPPRLPRPRPRPMIMPRP | -0.0509 |
| RRIRGRPPRLPRPRPRPMKDPRP | 0.55 |
| RRIRGRPPRLPRPRPRPMKFPRP | 0.0112 |
| RRIRGRPPRLPRPRPRPMNDPRP | 0.337 |
| RRIRGRPPRLPRPRPRPMNSPRP | 0.0334 |
| RRIRGRPPRLPRPRPRPMNVPRP | -0.176 |
| RRIRGRPPRLPRPRPRPMPWPRP | 0.25 |
| RRIRGRPPRLPRPRPRPMQLPRP | 0.539 |
| RRIRGRPPRLPRPRPRPMRLPRP | 1.05 |
| RRIRGRPPRLPRPRPRPMRTPRP | 2 |
| RRIRGRPPRLPRPRPRPMSKPRP | 0.269 |
| RRIRGRPPRLPRPRPRPMSMPRP | 0.257 |
| RRIRGRPPRLPRPRPRPMTMPRP | 0.146 |
| RRIRGRPPRLPRPRPRPMVAPRP | 1.17 |
| RRIRGRPPRLPRPRPRPMVPPRP | 0.202 |
